In PMC4569726 one finds stoichiometry N and percent monomerized by 0.1% SDS data, which are given here for three substances.

Test [1] deals with RSV F single-chain double mutant with fibritin trimerization domain (SC-DM: N67I, S215P) (respiratory syncytial virus strain A2 (subgroup A) | not stated). Nature of the test: SEC-MALS + native gel or EMSA; purified protein; SEC-MALS: 40 μg on TSK-Gel G3000SWxl in 150 mM NaPi, 50 mM NaCl, pH 7.0; NativePAGE Bis-Tris gel.
Test [2] has as its target RSV F single-chain triple mutant with fibritin trimerization domain (SC-TM: N67I, S215P, E487Q) (respiratory syncytial virus strain A2 (subgroup A) | not stated). The test is described as above.
In test [3] the target is Soluble, stabilized processed RSV F variant with fibritin motif (PR-TM: N67I, S215P, D486N) (respiratory syncytial virus strain A2 (subgroup A) | not stated). The test is described as follows: SDS-PAGE without reducing agents and without boiling, Western blot; samples treated with standard 0.1% SDS buffer at room temperature.

Consider “RSV F single-chain double mutant with fibritin trimerization domain (SC-DM: N67I, S215P) (domain or fragment)”, for which the stoichiometry N in test [1] stood at 3.

Turning to “RSV F single-chain triple mutant with fibritin trimerization domain (SC-TM: N67I, S215P, E487Q) (domain or fragment)”, in test [2], the stoichiometry N is 3. With “Soluble, stabilized processed RSV F variant with fibritin motif (PR-TM: N67I, S215P, D486N) (domain or fragment)”, the percent monomerized by 0.1% SDS in test [3] amounted to 50%.
